The labels stand for the following.
B1: mouse anti-hGPRC5D antibody mu-105 (antibody, V domains shown)
VH: EVQLQQSGPELVKPGASVKMSCKASGYTFTDYYMNWVKQSHGKSLEWIGYIYPNNGGTGYNQRFKGKATLTADKSSSTAYMELRSLTSEDSAVYYCARWGGTRLGYYAMDYWGQGTSVTVSS
VL: DIVMTQSQKFMSTSVGDRVSVTCKASQNVGTNVVWYQQKPGQSPKLLIYWASTRHTGVPDRFTGSGSGTDFTLTISNVQSEDLADYFCQQYSRYPYTFGGGTKLEIK
notes: Tested as subcloned hybridoma culture supernatant
B2: mouse anti-hGPRC5D antibody mu-89 (antibody, V domains shown)
VH: EVQLVESGGDLVKPGGSLKLSCAASGFTFSSYGMSWVRQTPDKRLEWVATISSGGSYTYYPDSVKGRFTFSRDNAKNTLYLQMSSLKSEDTAMYYCVRQALRYHMDSWGQGTSVTVSS
VL: B1 VL with V34A, L46A, W50S, T53Y, H55Y, T56S, Y86F, S92Y, R93S, Y96W
notes: as for B1
B3: mouse anti-hGPRC5D antibody mu-128 (antibody, V domains shown)
VH: DVQLVESGGGLVQPGGSRKVSCAASGFTFSSFGMHWVRQAPEKGLEWVAYISRGSSTIYYADTVKGRFTISRDNPKNTLFLQMTSLRSEDTAMYYCARSGYGSSSYYFDYWGQGTTLTVSS
VL: ENVLTQSPAIMSASPREKVTMTCRASSSIRSSYLHWYQQKSGASPKLWIYSTSNLASGVPARFSGSGSGTSYSLTISSVEAEDAATYYCQQFSGYPLTFGGGTKLEIK
notes: as for B1
B4: mouse anti-hGPRC5D antibody mu-169 (antibody, V domains shown)
VH: EVKLVESGGGLVKPGASLKLSCAASGFTFSNYGMSWVRQTSDKRLEWVASISSGGGRIYYPDNVKGRFTISRENAKNTLYLQMSSLKSEDTALYYCTRHAMDNWGQGTSVIVSS
VL: QIVLTQSPAIMSASPGEKVTMTCSASSSVSNMYWYQQKSGTSPKRWIYDTSKLASGVPARFSGSGSGTSYSLTISSMEAEDASTYYCQQWSSNPLTFGAGTTLELK
notes: as for B1
B5: mouse anti-hGPRC5D antibody mu-131 (antibody, V domains shown)
VH: EVQLQQSGPELVKPGASVKMSCKASGYTFTNYVMHWVKQKPGQGLEWIGYFNPYNDGTNYNEKFKGKATLTSDKSSNTAYMELSSLTSEDSAVYYCARGGVRRYFDVWGAGTTVTVSS
VL: DIQMTQSPSSLSASLGERVSLTCRASQDIGSNLNWLQLGPDGTIKRLIYATFSLDSGVPKRFSGSRSGSDYSLTISSLESEDFVDYYCQQYANFPPTFGGGTKLEIK
notes: as for B1

Where a chain is given by its changes, count along the chain named.

For the test, the target named is T1, human GPRC5D protein (human, UniProt Q9NZD1 1-345).
T1 construct: also called hGPRC5D
T1 sequence (Q9NZD1 whole entry): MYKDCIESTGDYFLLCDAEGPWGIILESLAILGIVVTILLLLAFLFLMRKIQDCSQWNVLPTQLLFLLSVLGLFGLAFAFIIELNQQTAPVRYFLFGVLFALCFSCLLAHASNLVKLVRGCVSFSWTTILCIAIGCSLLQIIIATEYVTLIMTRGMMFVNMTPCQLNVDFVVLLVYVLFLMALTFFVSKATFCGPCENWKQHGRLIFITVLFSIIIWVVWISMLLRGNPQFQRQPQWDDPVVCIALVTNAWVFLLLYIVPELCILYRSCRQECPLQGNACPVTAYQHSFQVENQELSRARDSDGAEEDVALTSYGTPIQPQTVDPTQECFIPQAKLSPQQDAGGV
The test can be described thus: FACS, subclone supernatant on H929 cells. The method, then: An H929 (i.e., NCI-H929) cell suspension at a cell concentration of 3× 10⁵ cells/mL was plated into a 96-well U-bottom plate at 100 μL/well. The subcloned cell culture supernatant was added at 100 μL/well or an equal volume of culture medium (hereinafter referred to as Medium) was added. The mixture was mixed well, and then incubated at 4° C. for 1 h. The cells were washed with PBS containing 2% (by volume) of FBS. An AlexaFluor488-conjugated goat anti-mouse IgG+IgM (H+L) antibody (Jackson Immuno Research, Cat. No.: 115-545-044) was added, and the mixture was incubated at 4° C. for 1 h. The cells were washed with PBS containing 2% (by volume) of FBS and then resuspended. Fluorescence signals were detected on a flow cytometer (Sartorius, IQue3). The binding of the mouse anti-hGPRC5D antibody to H929 cells was analyzed by the mean fluorescence intensity (MFI) of staining.
Consider B1, for which the MFI came to 13200 MFI.
Next, B2: 11900 MFI; B3: 15700 MFI; B4: 59300 MFI.
Next, B5: 12800 MFI.

Values taken from patent US20260159583A1 (CHIA TAI TIANQING PHARMACEUTICAL GROUP, published 2026).
